Measurements reported in patent US4562175A, “Synthetic peptides” (priority 1984, dated 1985).
Entries after “also recorded” stand apart in the source; their conditions may differ. Non-standard residues stand in square brackets, D forms with d. No end group written: not given here. Nle = CCCC[C@H](N)C(=O)O

Tests used:
[1] = Susceptibility to oxidation / loss of biological activity (stability); type: physicochemical
[2] = storage or in a living system; believed to be caused at least partly by oxidation of methionine 27; cited from earlier work
[3] = test system: monolayer rat pituitary cell cultures; assay: GH release from monolayer rat pituitary cell cultures; type: cell-based
Description: In vitro analysis of the synthetic peptide: The synthetic Nle^27 -hpGRF was added to the medium of monolayer rat pituitary cell cultures and incubated. After incubation, the media was assayed for GH released from the pituitary cells and compared to control cultures (medium alone). The amount of GH released in response to varying doses of Nle^27 -hpGRF was compared to the GH release induced by the same concentrations of the synthetic hpGRF.

## hpGRF: human pancreatic tumor growth hormone-releasing factor, 44 amino acid residues, methionine at position 27
[1]
  loss of biological activity through methionine oxidation: drastic loss of biological activity
[2]
  loss of biological activity during storage or when introduced into a living system: drastic loss of biological activity
[3]; L-ascorbic acid added to test medium, compared to medium without reducing agent
  GH-releasing activity with reducing agent added to the test medium: enhance the GH-releasing activity

## YADAIFTNSYRKVLGQLSARKLLQDI[Nle]SRQQGQSNQERGARARL-NH2 [Nle^27 -hpGRF]
[1]; norleucine at position 27 instead of methionine
  resistance to oxidation: resistant to oxidation
[3]; varying doses, same concentrations as synthetic hpGRF, tested at the same time under identical conditions
  GH-releasing activity (GH released into medium) compared with hpGRF: significantly greater biological activity than synthetic hpGRF; also recorded: greater growth hormone-releasing activity than the natural compound; also recorded: greater GH-releasing activity than original hpGRF

## corticotropin-releasing factor
[1]
  loss of biological activity through methionine oxidation: Loss of biologic activity
